Assays:
[1] = target: T1, human CD86-murine Ig fusion protein (human); test: SPR Biacore, hCD86-mIg captured; lower end of the KD bin (10x Orencia)
T1 construct: Bought (Ancell #509-820); also called hCD86-mIg
T1 chain: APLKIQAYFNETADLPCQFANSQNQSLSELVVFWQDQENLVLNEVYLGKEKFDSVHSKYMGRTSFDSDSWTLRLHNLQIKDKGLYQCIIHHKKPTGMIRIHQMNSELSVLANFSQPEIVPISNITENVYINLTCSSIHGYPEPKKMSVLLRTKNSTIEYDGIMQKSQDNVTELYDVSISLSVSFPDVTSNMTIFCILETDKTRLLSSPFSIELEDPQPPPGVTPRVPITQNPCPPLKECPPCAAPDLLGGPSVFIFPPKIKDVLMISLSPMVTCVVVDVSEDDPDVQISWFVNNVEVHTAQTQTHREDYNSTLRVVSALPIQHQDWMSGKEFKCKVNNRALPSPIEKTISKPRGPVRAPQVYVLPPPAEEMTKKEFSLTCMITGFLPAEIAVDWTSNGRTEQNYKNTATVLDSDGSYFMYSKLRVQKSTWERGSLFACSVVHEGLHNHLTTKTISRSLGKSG
Description: (§1) All Biacore™ analyses were performed on a Biacore™ 2000 system (GE Healthcare) at room temperature (RT, 25° C.). HBS-EP buffer (10 mM HEPES (pH 7.4), 150 mM NaCl, 3 mM EDTA, 0.005% surfactant P20) was used as the flow buffer for all experiments.
(§2) Rabbit anti-mouse IgG antibody (GE Healthcare, #BR-1005-14) was immobilized on CM5 sensor chips (GE Healthcare, #BR-1000-14) according to the manufacturer's protocol. Antibody was diluted to 30 μg/ml in immobilization buffer (10 mM sodium acetate, pH 5.0 (BR-1003-51)). At a flow rate of 5 μl/minute, sensor chip CM5 was activated with a 35 μl injection of a mixture of 1-Ethyl-3-[3-dimethylaminopropyl]carbodiimide hydrochloride (EDC) and N-hydroxysuccinimide (NHS) (made by mixing equal volumes of 11.5 mg/ml EDC and 75 mg/ml NHS) (GE Healthcare, #BR-1000-50), followed by a 35 μl injection of undiluted antibody. Un-reacted sites were quenched with 35 μl of 1M ethanolamine-HCL, pH 8.5 (GE Healthcare, #BR-1000-50). […] CTLA-4 ligands human CD80-murine Ig (hCD80-mIg) (Ancell, #510-820) or human CD86-murine Ig (hCD86-mIg) (Ancell, #509-820) were bound to antibody-coated sensor chips by injection of 10 μl or 16 μl, respectively, ligand solution (2 μg/ml protein in HBS-EP buffer [10 mM HEPES pH 7.4, 150 mM NaCl, 3 mM EDTA, 0.005% (v/v) surfactant P-20, GE Healthcare, #BR-1001-88]) at a flow rate of 10 μl/min.

[2] = target: T2, human CD80-murine Ig fusion protein (human); test: SPR Biacore, hCD80-mIg captured
T2 construct: Bought (Ancell #510-820); also called hCD80-mIg; human CD80-murine IgG
T2 chain: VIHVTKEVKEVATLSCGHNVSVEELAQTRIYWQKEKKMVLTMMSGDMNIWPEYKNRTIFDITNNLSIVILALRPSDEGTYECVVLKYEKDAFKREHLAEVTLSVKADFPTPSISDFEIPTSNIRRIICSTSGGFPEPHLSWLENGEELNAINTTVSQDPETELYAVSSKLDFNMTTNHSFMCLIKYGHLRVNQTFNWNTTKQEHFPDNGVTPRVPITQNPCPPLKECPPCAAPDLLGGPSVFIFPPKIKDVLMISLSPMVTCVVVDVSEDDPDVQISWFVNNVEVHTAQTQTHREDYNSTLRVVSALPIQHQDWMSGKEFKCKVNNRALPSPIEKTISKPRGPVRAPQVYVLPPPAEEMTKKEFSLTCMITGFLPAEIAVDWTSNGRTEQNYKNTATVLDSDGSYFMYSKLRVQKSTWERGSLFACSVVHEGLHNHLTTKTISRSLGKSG

[3] = target: T1, human CD86-murine Ig fusion protein; test: SPR Biacore, hCD86-mIg captured; upper end of the KD bin (2x Orencia)
Description: as §1, §2

Kd [1]: ≥ 523 pM
Binding Avidity (Relative to Orencia) [2]: > 2 fold
Kd [2]: < 439 pM
Kd [3]: ≤ 2650 pM
B1: D1-IgG2 (Fc fusion)
chain: MHVAQPAVVLASSRGIASFVCEYESPHKATEIRVTVLRQANSQVTEVCAMTYMKGDELTFLDDPFCTGTFSGNQVNLTIQGLRAADTGLYICKVELMYPPPYYLGIGNGTQIYVIDPEPCPDSDERKCCVECPPCPAPPVAGPSVFLFPPKPKDTLMISRTPEVTCVVVDVSHEDPEVQFNWYVDGVEVHNAKTKPREEQFNSTFRVVSVLTVVHQDWLNGKEYKCKVSNKGLPAPIEKTISKTKGQPREPQVYTLPPSREEMTKNQVSLTCLVKGFYPSDIAVEWESNGQPENNYKTTPPMLDSDGSFFLYSKLTVDKSRWQQGNVFSCSVMHEALHNHYTQKSLSLSPG

Reference: patent US20110177071A1 (PERSEID THERAPEUTICS, published 2011)
